From paper PMC6922461 (PLoS Biology, 2019) come the findings set out here.

Data set [1] has as its target Strep-Tactin-SpyCatcherΔ subunit. In words: refolding of mixed subunits, anion exchange chromatography, SDS-PAGE densitometry; subunits from washed inclusion bodies mixed at 3:1, refolded by rapid dilution, tetramers separated on Mono Q; boiled peak samples on reducing SDS-PAGE, bands normalised for molecular weight and converted to a subunit ratio. The following applies: both partners purified.

Data set [2] deals with the molecule itself. Described as above.

Chain of Strep-Tactin-SpyCatcherΔ subunit (chain, as listed by the source mutant): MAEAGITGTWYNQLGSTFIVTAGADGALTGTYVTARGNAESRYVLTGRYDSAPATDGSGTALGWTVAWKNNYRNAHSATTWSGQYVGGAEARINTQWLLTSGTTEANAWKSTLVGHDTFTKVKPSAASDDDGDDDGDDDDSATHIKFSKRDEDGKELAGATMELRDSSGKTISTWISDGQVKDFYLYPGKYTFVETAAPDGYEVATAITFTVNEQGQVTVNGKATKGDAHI

B1: dead streptavidin subunit (other)
chain: MAEAGITGTWYAQLGDTFIVTAGADGALTGTYEAAVGNAESRYVLTGRYDSAPATDGSGTALGWTVAWKNNYRNAHSATTWSGQYVGGAEARINTQWLLTSGTTEANAWKSTLVGHDTFTKVKPSAAS
notes: also called dead streptavidin monomer
For the molecule B1, the “stoichiometry N” value in data set [1] was 3.7 dead streptavidin per Strep-Tactin-SpyCatcherΔ. For the same molecule, the binding result in data set [2] is given as “binds”.
